Our source for the binding signal (% of initial fragment) values is publication PMC7054387.

Data set [1] deals with T1, H-NS-His in cell lysate (Escherichia coli K12 MG1655?) (UniProt P0ACF8).
T1 sequence: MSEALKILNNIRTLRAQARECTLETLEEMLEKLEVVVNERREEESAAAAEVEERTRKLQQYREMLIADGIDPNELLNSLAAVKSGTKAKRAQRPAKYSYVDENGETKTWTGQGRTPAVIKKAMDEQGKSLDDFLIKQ
Put plainly: EMSA + anti-His Western. To be noted: 0.01 mM EDTA, 0.01 mM DTT, 3.3 mM imidazole, 40 min at 30°C. A general note: Mobility shift assays separate free from complexed probe on a gel.

Data set [2] concerns the target T2, H-NS (purified recombinant) (Escherichia coli K12 MG1655?) (UniProt P0ACF8).
T2 sequence: T1 sequence
Put plainly: EMSA. The conditions noted are these: 1 mM Mg2+, EMSA: 0.5 pmol DNA in 20 µl 5 mM Tris-HCl pH 8.0, 1 mM MgCl2, 50 mM NaCl, 0.01 mM EDTA, 0.01 mM DTT, 3.3 mM imidazole, 40 min at 30°C, 5% PAAG, lysate series ….

The mark [3] stands for this setting: n=6, EMSA: 0.5 pmol DNA in 20 µl 5 mM Tris-HCl pH 8.0, 1 mM MgCl2, 50 mM NaCl, 5% …, lysate series wi.

Consider “AGATCTGCAAGTAAAAATGATACTCTTTATATTTAAATTCAAACGGTTGACATATATATAGCACGAGGTTTCATGTGCGTAGTAGTGAGTTTATGTTATTAAACAGCTTAGTATGCGTTGGAAAGTGAAGCTTTGTAATAAGTTAGAATAAGACGCGACATACATATAACAATTTAATCTTAAATGTAGTCTATTAGCATTTGCAAACAAACAATTTGCGTATATACTATAAATGCACATCATCCTGATTGTGATTGTGTATTTAACTGGTTCTTATATGACTACTACCAACTAGGTTTAGTCTTATGATAGGTGCAGGATGGATTATGTTTACTCCGTAGTTTCCATCTGTCTATCATTAGATTTAATTATGAACAGGAGAGTTATCCTGTTCAAAAAAAATTCATTGTTTATTGTAAGCGACAAATCTAGA (double strand) [appY promoter, activated mutant (positive selection cycle 9)]”, for which the binding signal (% of initial fragment) in data set [1] (setting [3]) came to 97.2; in data set [2] (n=6) it was 102.

Regarding “AGATCTGCAAGTAAAAATGATACTCTTTTTATATTAAATTCAAACGGTTGACATATATATAGCAAGAGGTTTCAGGTGCGTTGTAGCGAGTTTATGTTTATAAAAAGCATAGTAAGCGTTGAAAAATGTAACTTTGAAATAAGTTAGAATAAAAAACAACATACATATATTAATTTAATCCTAAATGAAATTTATTAAAATCTGCAAACTATAATTTTGTGTATAAAAATATAAATGCACATCATCCTGATTATGATTGTGTATTTAATTGGTTGTTATTTGACTACTATCAACTTGTTTTAATTTTATGATAGGTGCAAGGTGGATTATGTTTGATCCGTAGTTTTCATCTGTCAATCATTTGATTTAATTATAAACAGGAGAGTTATCTCGTTCAAAAAAATTCATTGTTTATTGTAAGCGACAAATCTAGA (double strand)”, the binding signal (% of initial fragment) in data set [1] (p=0.15, n=6, EMSA: 0.5 pmol DNA in 20 µl 5 mM Tris-HCl pH 8.0, 1 mM MgCl2, 50 mM NaCl, 5% PAAG, lysate series …) amounted to 117; in data set [2] (p=0.78, n=6) it was 110.

For “AGATCTTCCTCGGAGAAACACTGACACCCATACAGCTACTGGCGCTCGGCGCTATCATCGCCACTTCAATGGGGTCTACGCTGACAGTACGCAAAGAGAGCAAAATAAAAGAATTAGACATTAATTAAATTTACATTTCTGCATGGTTATGCATAACCATGCAGAATTTCTCGCTACTTTTCCTCTACACCGTCTTTATATATCGAATTATGCAAAAGCATATTTATTCCGAAAATTCCTGGCGAGCAGATAAATAAGAATTGTTCTTATCAATATATCTAACTCATTGAATCTTTATTAGTTTTGTTTTTCACGCTTGTTACCACTATTAGTGTGATAGGAACAGCCAGAATTGCGGAACACATAGCCGGTGCTATACTTAGTCTCGTTAATTACTGGGACATAACATCTAGA (double strand) [dps promoter, up-regulated mutant (positive selection)]”, the binding signal (% of initial fragment) in data set [1] (p=0.537, n=6, EMSA: 0.5 pmol DNA in 20 µl 5 mM Tris-HCl pH 8.0, 1 mM MgCl2, 50 mM NaCl, 5% PAAG, lysate series …) came to 129; in data set [2] (n=6), 100.

On to “AGATCTTCCTCGGAGAAACACTGACACCCATACAGCTACTGGCGCTCGGCGCTATCATCGCCGCTTCAATGGGGTCTACGCAGACAGTACGCAAAGAGAGCAAAATAAAAGAATTAGACATTAATTAAATTTACATTTCTGCATGGTTATGCATAACCTTGCAGAATTTCTCGCTACTTTTCCCCTACACCGTCTTTATATATCGAATTATGCAAAAGCATATTTATTCCGAAAATTCCTGGCGAGCAGATAAATAAGAATTGTTCTTATCAATATATCTAACTCATTGAATCTTTATTAGTTGTGTTTTTCACGCTTGTTACCACTATTAGTGTGATAGGAACAGCCAGAATAGCGGAACACATAGCCGGTGCTATACATAGTCTCGTTAATTACTGGGACATAACATCTAGA (double strand) [dps promoter, down-regulated mutant (negative selection)]”, for which the binding signal (% of initial fragment) in data set [1] (setting [3]) was determined as 113; in data set [2] (n=6, not significant), 117.
